From patent US20080108546A1 (VLAAMS INTERUNIVERSITAIR INSTITUUT, published 2008)

Target: T1, E-epitope tagged human RIP2 (human, UniProt O43353 1-540)
T1 construct: ORF cloned in pCAGGS-E, expressed in 293T cells; also called E-RIP2
Assay: co-immunoprecipitation from 293T lysates, anti-Flag IP, anti-E immunoblot
Procedure: FIG. 4: Interactions of INCA with other CARD-containing proteins. Co-immunoprecipitation assays were performed using lysates from 293T cells that have been transiently transfected with plasmids encoding various epitope-tagged proteins as indicated, including Flag-INCA, E-INCA, E-procaspase-1, E-COP, E-ICEBERG, E-RIP2 and E-procaspase-2 CARD. Immunoprecipitates were prepared using anti-Flag antibody adsorbed to protein G-sepharose and analyzed by SDS-PAGE/immunoblotting using anti-E epitope tag antibody and chemoluminescence-based detection. Aliquots of the same lysates were also analyzed directly by SDS-PAGE/immunoblotting as indicated. IP, immunoprecipitation; WB: Western blotting.
293T is a human embryonal kidney carcinoma cell line. 293T cells were routinely transfected using the calcium phosphate precipitation method (O'Mahoney and Adams, 1994). Cells were seeded the day before transfection at 2×10⁵ cells/6-well. Cells were transfected for 4 h, washed and incubated for another 24 h before lysates were prepared by harvesting the cells and lysing them in ice-cold NP-40 lysis buffer (10 mM HEPES pH 7.4, 142.5 mM KCl, 0.2% NP-40, 5 mM EGTA), supplemented with 1 mM DTT, 12.5 mM β-glycerophosphate, 1 mM Na₃VO₄, 1 mM PMSF, and 1× protease inhibitor mix (Roche, Basel, Switzerland). […] Alternatively, lysates were analyzed directly by immunoblotting after normalization for total protein content. […]

T1 sequence (O43353 whole entry): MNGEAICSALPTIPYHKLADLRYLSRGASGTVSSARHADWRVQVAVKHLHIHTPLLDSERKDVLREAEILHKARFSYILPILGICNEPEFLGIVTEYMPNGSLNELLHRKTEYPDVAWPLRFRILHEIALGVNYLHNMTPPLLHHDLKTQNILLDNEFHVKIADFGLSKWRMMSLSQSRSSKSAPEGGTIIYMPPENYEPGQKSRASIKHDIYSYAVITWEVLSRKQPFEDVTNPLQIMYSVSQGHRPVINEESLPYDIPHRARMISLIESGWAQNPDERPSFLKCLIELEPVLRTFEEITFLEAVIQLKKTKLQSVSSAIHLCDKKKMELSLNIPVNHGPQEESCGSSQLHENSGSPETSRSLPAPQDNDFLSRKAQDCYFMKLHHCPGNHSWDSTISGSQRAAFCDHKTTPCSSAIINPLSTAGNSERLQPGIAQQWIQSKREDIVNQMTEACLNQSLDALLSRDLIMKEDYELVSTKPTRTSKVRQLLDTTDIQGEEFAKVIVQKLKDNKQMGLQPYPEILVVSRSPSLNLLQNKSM

B1: Flag-tagged INCA (Inhibitory CARD) (other, not shown: small tags and cut ends)
chain: MADKVLKEKRKQFIRSVGEGTINGLLGELLETRVLSQEEIEIVKCENATVMDKARALLDSVIRKGAPACQICITYICEEDSHLAGTLGLSAGPTSGNHLTTQDSQIVLPS
notes: Expressed in 293T cells (pCAGGS-Flag) for co-immunoprecipitation; Flag-tagged INCA also expressed stably in THP-1 cells from a retroviral vector; also called Flag-INCA
binding result: no binding
